According to patent US20200332271:

Molecular target: dSpCas9 ::KQ KQ insertion (Streptococcus pyogenes) (UniProt Q99ZW2)
Assay: cell_activity
Conditions: TGG PAM; half the GFP-positive fraction of SpCas9

Sequence of UniProt Q99ZW2 (Q99ZW2 whole entry): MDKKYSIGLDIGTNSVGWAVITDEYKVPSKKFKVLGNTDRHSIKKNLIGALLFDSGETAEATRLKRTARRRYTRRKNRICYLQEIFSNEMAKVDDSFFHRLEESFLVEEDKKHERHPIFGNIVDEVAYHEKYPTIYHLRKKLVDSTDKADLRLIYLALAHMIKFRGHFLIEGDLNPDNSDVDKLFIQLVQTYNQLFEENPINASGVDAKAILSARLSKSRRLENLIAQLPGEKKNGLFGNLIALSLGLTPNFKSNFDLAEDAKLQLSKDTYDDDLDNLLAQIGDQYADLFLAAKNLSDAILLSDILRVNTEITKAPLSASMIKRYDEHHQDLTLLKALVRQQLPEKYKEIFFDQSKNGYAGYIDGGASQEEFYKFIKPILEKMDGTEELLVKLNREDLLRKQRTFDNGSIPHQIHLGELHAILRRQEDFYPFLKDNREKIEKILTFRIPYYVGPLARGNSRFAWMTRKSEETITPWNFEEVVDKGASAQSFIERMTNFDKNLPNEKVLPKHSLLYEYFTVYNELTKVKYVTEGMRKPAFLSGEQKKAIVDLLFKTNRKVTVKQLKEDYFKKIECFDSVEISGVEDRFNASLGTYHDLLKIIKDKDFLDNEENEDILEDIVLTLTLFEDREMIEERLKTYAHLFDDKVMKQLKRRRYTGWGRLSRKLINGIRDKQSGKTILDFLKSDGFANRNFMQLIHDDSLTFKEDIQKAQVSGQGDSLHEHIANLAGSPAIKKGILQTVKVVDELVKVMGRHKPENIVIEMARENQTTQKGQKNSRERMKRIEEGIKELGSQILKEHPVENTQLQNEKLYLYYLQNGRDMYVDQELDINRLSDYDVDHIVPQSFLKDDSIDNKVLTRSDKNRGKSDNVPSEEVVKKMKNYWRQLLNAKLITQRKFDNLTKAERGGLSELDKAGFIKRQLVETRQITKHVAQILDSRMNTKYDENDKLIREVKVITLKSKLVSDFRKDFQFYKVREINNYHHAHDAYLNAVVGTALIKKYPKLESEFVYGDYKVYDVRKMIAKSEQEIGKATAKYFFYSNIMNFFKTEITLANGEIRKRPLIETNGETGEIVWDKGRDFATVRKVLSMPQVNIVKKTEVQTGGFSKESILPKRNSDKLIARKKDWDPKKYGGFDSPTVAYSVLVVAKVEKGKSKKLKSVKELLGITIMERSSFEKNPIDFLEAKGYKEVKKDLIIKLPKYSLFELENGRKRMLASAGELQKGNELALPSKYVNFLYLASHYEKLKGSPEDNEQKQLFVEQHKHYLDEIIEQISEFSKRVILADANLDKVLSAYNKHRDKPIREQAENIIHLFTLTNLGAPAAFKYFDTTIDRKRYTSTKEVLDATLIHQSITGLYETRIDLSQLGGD

CGAAAGGUUUUGCACUCGAC / CGAAAGGTTTTGCACTCGACTGG / CCAGTCGAGTGCAAAACCTTTCG [PAM-SCANR sgRNA spacer ; PAM-SCANR protospacer + TGG PAM]
binding signal (fraction of SpCas9 GFP+ cells): 0.5
